Experimental findings from article PMC6367035 (Nature, 2018) are described below.

The target of the assay is T1, Sec61 (S. cerevisiae) (S. cerevisiae, UniProt P32915 1-480, surface-exposed lysines modified with low-molecular weight polyethylenglycol (MS(PEG)12 methyl-PEG-NHS-ester)).
T1 sequence (looked up): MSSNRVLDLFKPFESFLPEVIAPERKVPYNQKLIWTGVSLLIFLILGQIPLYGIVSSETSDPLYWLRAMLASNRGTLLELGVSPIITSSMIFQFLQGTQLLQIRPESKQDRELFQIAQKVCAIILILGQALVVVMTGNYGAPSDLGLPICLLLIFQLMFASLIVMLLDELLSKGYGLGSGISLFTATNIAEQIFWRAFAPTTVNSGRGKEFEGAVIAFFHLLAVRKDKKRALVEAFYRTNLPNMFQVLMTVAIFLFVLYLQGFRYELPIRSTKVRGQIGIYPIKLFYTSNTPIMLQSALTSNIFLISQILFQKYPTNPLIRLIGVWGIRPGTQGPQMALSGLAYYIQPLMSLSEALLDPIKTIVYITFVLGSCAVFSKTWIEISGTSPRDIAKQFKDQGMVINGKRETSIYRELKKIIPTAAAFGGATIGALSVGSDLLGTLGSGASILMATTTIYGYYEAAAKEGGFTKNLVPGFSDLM
Put plainly: cryo-EM structure.

B1: Sec71 (S. cerevisiae) (natural protein, UniProt P33754 1-206, looked up)
chain: MSEFNETKFSNNGTFFETEEPIVETKSISVYTPLIYVFILVVSLVMFASSYRKKQAKKISEQPSIFDENDAHDLYFQIKEMSENEKIHEKVLKAALLNRGAESVRRSLKLKELAPQINLLYKNGSIGEDYWKRFETEVKLIELEFKDTLQEAERLQPGWVQLFVMVCKEICFNQALSRRYQSILKRKEVCIKEWELKINNDGRLVN
modifications: glycan (cleaved by Endoglycosidase H); surface-exposed lysines modified with low-molecular weight polyethylenglycol (MS(PEG)12 methyl-PEG-NHS-ester)
Consider B1, for which the binding result is given as “binds”.

B2: Sbh1 (S. cerevisiae) (natural protein, UniProt P52870 1-82, looked up)
chain: MSSPTPPGGQRTLQKRKQGSSQKVAASAPKKNTNSNNSILKIYSDEATGLRVDPLVVLFLAVGFIFSVVALHVISKVAGKLF
modifications: surface-exposed lysines modified with low-molecular weight polyethylenglycol (MS(PEG)12 methyl-PEG-NHS-ester)
Consider B2, for which the binding result is “binds”.

B3: Sss1 (S. cerevisiae) (natural protein, UniProt P35179 1-80, looked up)
chain: MARASEKGEEKKQSNNQVEKLVEAPVEFVREGTQFLAKCKKPDLKEYTKIVKAVGIGFIAVGIIGYAIKLIHIPIRYVIV
modifications: surface-exposed lysines modified with low-molecular weight polyethylenglycol (MS(PEG)12 methyl-PEG-NHS-ester)
Take B3: the binding result is given as “binds”.
